# Measurements from paper PMC8533099, “Kinetic Analysis of the Interaction of Nicking Endonuclease BspD6I with DNA”.
# T1: Nt.BspD6I (UniProt A3FEV7 1-604)
# T1 sequence: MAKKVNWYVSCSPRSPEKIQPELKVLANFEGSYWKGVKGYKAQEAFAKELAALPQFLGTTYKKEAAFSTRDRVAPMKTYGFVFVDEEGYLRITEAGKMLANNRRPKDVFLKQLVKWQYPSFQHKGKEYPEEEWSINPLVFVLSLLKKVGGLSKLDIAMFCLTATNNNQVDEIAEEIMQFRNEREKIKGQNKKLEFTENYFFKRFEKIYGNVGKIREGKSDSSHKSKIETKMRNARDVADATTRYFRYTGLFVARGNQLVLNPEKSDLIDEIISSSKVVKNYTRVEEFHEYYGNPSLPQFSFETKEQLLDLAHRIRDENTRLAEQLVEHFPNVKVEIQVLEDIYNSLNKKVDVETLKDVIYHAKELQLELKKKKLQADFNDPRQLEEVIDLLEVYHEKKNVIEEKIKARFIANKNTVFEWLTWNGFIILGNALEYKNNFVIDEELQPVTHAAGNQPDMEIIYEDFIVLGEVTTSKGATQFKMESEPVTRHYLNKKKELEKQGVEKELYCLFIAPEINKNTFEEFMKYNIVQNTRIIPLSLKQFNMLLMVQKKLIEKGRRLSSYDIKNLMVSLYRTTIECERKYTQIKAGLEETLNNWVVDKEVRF
# B1: I-17 (dsDNA)
# DNA 1: GGTCTCGAGTCTTCTCA
# DNA 2: TGAGAAGACTCGAGACC
# B2: VI-30 (dsDNA)
# DNA 1: GCGTGGTCTCGAGTCTTCTCAAGGTACCTG
# DNA 2: CAGGTACCTTGAGAAGACTCGAGACCACGC
# B3: VI-30N (dsDNA)
# DNA 1: GTATGAAGCTAGAGCCAGGTTGGCAGCATC
# DNA 2: GATGCTGCCAACCTGGCTCTAGCTTCATAC
# B4: III-21 (dsDNA)
# DNA 1: GGTCTCGAGTCTTCTCAAGGT
# DNA 2: ACCTTGAGAAGACTCGAGACC
# B5: V-26 (dsDNA)
# DNA 1: CGTGGTCTCGAGTCTTCTCAAGGTAC
# DNA 2: GTACCTTGAGAAGACTCGAGACCACG
# B6: IV-23 (dsDNA)
# DNA 1: GGTCTCGAGTCTTCTCAAGGTAC
# DNA 2: GTACCTTGAGAAGACTCGAGACC
# B7: II-19 (dsDNA)
# DNA 1: GGTCTCGAGTCTTCTCAAG
# DNA 2: CTTGAGAAGACTCGAGACC
# Experiments:
# Settings in all cases: blunt
# Nt.BspD6I [1] = target: T1, Nt.BspD6I; experiment: stopped-flow Trp fluorescence; 10 mM Mg2+; kobs k1 490 s-1, k2 128 s-1; Stopped-flow, 37 °C, 10 mM CaCl2 or 10 mM MgCl2 (or 0.4 mM EDTA without divalent metal); 1 µM enzyme (Trp) or 1 µM DNA (FRET); buffer, salt and pH not in the supplied text
# Nt.BspD6I [2] = target: T1, Nt.BspD6I; experiment: stopped-flow Trp fluorescence; 0.4 mM EDTA, no divalent metal; Stopped-flow, 37 °C, 10 mM CaCl2 or 10 mM MgCl2 (or 0.4 mM EDTA without divalent metal); 1 µM enzyme (Trp) or 1 µM DNA (FRET); buffer, salt and pH not in the supplied text
# Nt.BspD6I [3] = target: T1, Nt.BspD6I; experiment: stopped-flow Trp fluorescence; 10 mM Ca2+; Stopped-flow, 37 °C, 10 mM CaCl2 or 10 mM MgCl2 (or 0.4 mM EDTA without divalent metal); 1 µM enzyme (Trp) or 1 µM DNA (FRET); buffer, salt and pH not in the supplied text
# Nt.BspD6I [4] = target: T1, Nt.BspD6I; experiment: stopped-flow Trp fluorescence; 10 mM Mg2+; Stopped-flow, 37 °C, 10 mM CaCl2 or 10 mM MgCl2 (or 0.4 mM EDTA without divalent metal); 1 µM enzyme (Trp) or 1 µM DNA (FRET); buffer, salt and pH not in the supplied text
# Nt.BspD6I [5] = target: T1, Nt.BspD6I; experiment: stopped-flow Trp fluorescence; 10 mM Mg2+; kobs k1 232 s-1, k2 21 s-1; Stopped-flow, 37 °C, 10 mM CaCl2 or 10 mM MgCl2 (or 0.4 mM EDTA without divalent metal); 1 µM enzyme (Trp) or 1 µM DNA (FRET); buffer, salt and pH not in the supplied text
# Nt.BspD6I [6] = target: T1, Nt.BspD6I; experiment: stopped-flow Trp fluorescence; 10 mM Mg2+; kobs k1 126 s-1, k2 7.0 s-1; Stopped-flow, 37 °C, 10 mM CaCl2 or 10 mM MgCl2 (or 0.4 mM EDTA without divalent metal); 1 µM enzyme (Trp) or 1 µM DNA (FRET); buffer, salt and pH not in the supplied text
# Nt.BspD6I [7] = target: T1, Nt.BspD6I; experiment: stopped-flow Trp fluorescence; 10 mM Mg2+; kobs k1 145 s-1, k2 10.0 s-1; Stopped-flow, 37 °C, 10 mM CaCl2 or 10 mM MgCl2 (or 0.4 mM EDTA without divalent metal); 1 µM enzyme (Trp) or 1 µM DNA (FRET); buffer, salt and pH not in the supplied text
# Nt.BspD6I [8] = target: T1, Nt.BspD6I; experiment: stopped-flow Trp fluorescence; 10 mM Ca2+; kobs k1 261 s-1, k2 6.2 s-1; Stopped-flow, 37 °C, 10 mM CaCl2 or 10 mM MgCl2 (or 0.4 mM EDTA without divalent metal); 1 µM enzyme (Trp) or 1 µM DNA (FRET); buffer, salt and pH not in the supplied text
binder,measurement,setting,value
B1,binding result,Nt.BspD6I [1],binds
B2,Kd,Nt.BspD6I [2],0.013 ± 0.003 µM
B3,Kd,Nt.BspD6I [3],0.06 ± 0.02 µM
same,Kd,Nt.BspD6I [4],0.07 ± 0.02 µM
B4,binding result,Nt.BspD6I [5],binds
B5,binding result,Nt.BspD6I [6],binds
B6,binding result,Nt.BspD6I [7],binds
B7,binding result,Nt.BspD6I [8],binds
